The values that follow come from article PMC5394239 (Nature Communications, 2017).

This series deals with the molecule itself. In words: cryo-EM structure.

B1: SARS-CoV S ectodomain, uncleaved, trimerization motif and His tag removed by thrombin (domain or fragment)
chain: not shown
What is called stoichiometry N is the number of molecules, sites or subunits per partner or assembly. Consider B1, for which the “stoichiometry N” value amounted to 3.
